From the supplement of paper PMC9112550, “Optimization of the antimicrobial peptide Bac7 by deep mutational scanning” (BMC Biology, 2022)

test system: Escherichia coli TOP10; assay: shrunken log2 fold change of peptide-encoding DNA abundance (4.5 h post-induction vs induction); higher = less antimicrobial activity (less host growth inhibition); conditions: time post-induction: 4.5 h; library: site-saturation at positions 5, 18, 19, 20
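Note: peptides expressed intracellularly from a pBAD plasmid library in pooled LB shake-flask culture, induced with 0.3% L-arabinose, DNA abundance read by NGS, three biological replicates, DESeq2 with apeglm shrinkage.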

Row | Sequence | shrunken log2 fold change
1 | RRIRQRPPRLPRPRPRPCFYPRP | -0.269
2 | RRIRFRPPRLPRPRPRPGMYPRP | -0.076
3 | RRIRQRPPRLPRPRPRPLQQPRP | -0.123
4 | RRIRTRPPRLPRPRPRPYHWPRP | -0.675
5 | RRIRIRPPRLPRPRPRPEKFPRP | -0.247
6 | RRIRRRPPRLPRPRPRPRSLPRP | -0.0226
7 | RRIRTRPPRLPRPRPRPWKKPRP | 0.0414
8 | RRIRYRPPRLPRPRPRPTCAPRP | -0.0853
9 | RRIRKRPPRLPRPRPRPMCTPRP | -0.0805
10 | RRIRLRPPRLPRPRPRPWVIPRP | -0.0649
11 | RRIRNRPPRLPRPRPRPVHGPRP | -0.0581
12 | RRIRFRPPRLPRPRPRPKFAPRP | 0.102
13 | RRIRVRPPRLPRPRPRPQLSPRP | 0.132
14 | RRIRLRPPRLPRPRPRPLGVPRP | 0.0325
15 | RRIRHRPPRLPRPRPRPGTAPRP | -0.275
16 | RRIRARPPRLPRPRPRPDEIPRP | 0.357
17 | RRIRVRPPRLPRPRPRPGCSPRP | 0.186
18 | RRIRSRPPRLPRPRPRPSYWPRP | 2.29
19 | RRIRSRPPRLPRPRPRPYKCPRP | -0.137
20 | RRIRVRPPRLPRPRPRPQTMPRP | -0.689
21 | RRIRHRPPRLPRPRPRPTIQPRP | -0.169
22 | RRIRARPPRLPRPRPRPDCNPRP | 0.606
23 | RRIRMRPPRLPRPRPRPELMPRP | 3.86
24 | RRIRRRPPRLPRPRPRPCRNPRP | 0.0376
25 | RRIRQRPPRLPRPRPRPRCIPRP | -0.188

Row | Sequence | shrunken log2 fold change
26 | RRIRPRPPRLPRPRPRPQVGPRP | 0.0207
27 | RRIRMRPPRLPRPRPRPIMSPRP | 0.0205
28 | RRIRERPPRLPRPRPRPSARPRP | -0.192
29 | RRIRMRPPRLPRPRPRPEGTPRP | 0.0716
30 | RRIRERPPRLPRPRPRPNWSPRP | -0.3
31 | RRIRSRPPRLPRPRPRPYDAPRP | -0.557
32 | RRIRERPPRLPRPRPRPYKTPRP | -0.00814
33 | RRIRQRPPRLPRPRPRPVNFPRP | -0.346
34 | RRIRPRPPRLPRPRPRPMHYPRP | -0.336
35 | RRIRSRPPRLPRPRPRPQMIPRP | -0.292
36 | RRIRPRPPRLPRPRPRPYFKPRP | -0.796
37 | RRIRVRPPRLPRPRPRPNHAPRP | 0.0625
38 | RRIRQRPPRLPRPRPRPYCPPRP | -0.422
39 | RRIRPRPPRLPRPRPRPLMQPRP | 0.124
40 | RRIRDRPPRLPRPRPRPKGTPRP | -0.0298
41 | RRIRKRPPRLPRPRPRPRQQPRP | 0.395
42 | RRIRKRPPRLPRPRPRPNYSPRP | -0.0472
43 | RRIRRRPPRLPRPRPRPMPYPRP | -0.0473
44 | RRIRSRPPRLPRPRPRPILCPRP | -0.35
45 | RRIRVRPPRLPRPRPRPGLHPRP | -0.0936
46 | RRIRERPPRLPRPRPRPRDMPRP | 0.0375
47 | RRIRGRPPRLPRPRPRPMQQPRP | 2.08
48 | RRIRFRPPRLPRPRPRPFMRPRP | 0.559
49 | RRIRARPPRLPRPRPRPGWMPRP | -0.168
50 | RRIRCRPPRLPRPRPRPNPQPRP | -0.359

Row | Sequence | shrunken log2 fold change
51 | RRIRFRPPRLPRPRPRPASFPRP | 0.279
52 | RRIRNRPPRLPRPRPRPYVAPRP | -0.931
53 | RRIRNRPPRLPRPRPRPGMWPRP | 0.397
54 | RRIRWRPPRLPRPRPRPPGNPRP | 0.687
55 | RRIRFRPPRLPRPRPRPNPNPRP | -0.168
56 | RRIRHRPPRLPRPRPRPVSAPRP | 0.0852
57 | RRIRRRPPRLPRPRPRPLINPRP | -0.0185
58 | RRIRLRPPRLPRPRPRPTGNPRP | -0.044
59 | RRIRDRPPRLPRPRPRPQKTPRP | -0.253
60 | RRIRYRPPRLPRPRPRPGHRPRP | 0.0683
61 | RRIRVRPPRLPRPRPRPNCVPRP | -0.0661
62 | RRIRHRPPRLPRPRPRPYCHPRP | -0.0851
63 | RRIRWRPPRLPRPRPRPIWHPRP | 0.126
64 | RRIRMRPPRLPRPRPRPWFNPRP | -0.243
65 | RRIRIRPPRLPRPRPRPGDDPRP | 0.136
66 | RRIRERPPRLPRPRPRPDTVPRP | 0.37
67 | RRIRMRPPRLPRPRPRPIWMPRP | -0.101
68 | RRIRERPPRLPRPRPRPFGLPRP | -0.0181
69 | RRIRIRPPRLPRPRPRPLLPPRP | -0.0454
70 | RRIRQRPPRLPRPRPRPRNHPRP | -0.137
71 | RRIRMRPPRLPRPRPRPDYEPRP | -0.0178
72 | RRIRARPPRLPRPRPRPWGYPRP | -0.317
73 | RRIRNRPPRLPRPRPRPLMIPRP | -0.0419
74 | RRIRSRPPRLPRPRPRPWPFPRP | 0.0554
75 | RRIRRRPPRLPRPRPRPCLMPRP | 0.434

Row | Sequence | shrunken log2 fold change
76 | RRIRCRPPRLPRPRPRPILNPRP | -0.431
77 | RRIRQRPPRLPRPRPRPLCFPRP | -0.302
78 | RRIRFRPPRLPRPRPRPEFAPRP | -0.175
79 | RRIRLRPPRLPRPRPRPTEDPRP | -0.0182
80 | RRIRDRPPRLPRPRPRPNGRPRP | 0.00232
81 | RRIRDRPPRLPRPRPRPSLIPRP | -0.156
82 | RRIRSRPPRLPRPRPRPACCPRP | 0.303
83 | RRIRQRPPRLPRPRPRPYILPRP | -0.773
84 | RRIRSRPPRLPRPRPRPSEDPRP | -0.325
85 | RRIRRRPPRLPRPRPRPQLTPRP | 0.122
86 | RRIRVRPPRLPRPRPRPLYCPRP | -0.596
87 | RRIRQRPPRLPRPRPRPIMLPRP | -0.433
88 | RRIRFRPPRLPRPRPRPFKDPRP | -0.112
89 | RRIRARPPRLPRPRPRPGWWPRP | 0.235
90 | RRIRQRPPRLPRPRPRPPQRPRP | 0.655
91 | RRIRCRPPRLPRPRPRPGIWPRP | 0.485
92 | RRIRNRPPRLPRPRPRPFRIPRP | -0.0132
93 | RRIRSRPPRLPRPRPRPGDQPRP | 0.0164
94 | RRIRERPPRLPRPRPRPQAPPRP | -0.0683
95 | RRIRTRPPRLPRPRPRPQPWPRP | 0.314
96 | RRIRCRPPRLPRPRPRPNMKPRP | -0.769
97 | RRIRRRPPRLPRPRPRPHIVPRP | -0.0515
98 | RRIRSRPPRLPRPRPRPITSPRP | -0.0517
99 | RRIRERPPRLPRPRPRPSEMPRP | -0.16
100 | RRIRNRPPRLPRPRPRPLHCPRP | -0.168

Row | Sequence | shrunken log2 fold change
101 | RRIRVRPPRLPRPRPRPHYHPRP | -0.397
102 | RRIRRRPPRLPRPRPRPREVPRP | 0.442
103 | RRIRDRPPRLPRPRPRPCKMPRP | -0.0957
104 | RRIRHRPPRLPRPRPRPAPTPRP | 0.294
105 | RRIRHRPPRLPRPRPRPIHTPRP | 0.00096
106 | RRIRDRPPRLPRPRPRPPGFPRP | 0.348
107 | RRIRFRPPRLPRPRPRPMSMPRP | 0.00945
108 | RRIRHRPPRLPRPRPRPFQHPRP | -0.0182
109 | RRIRYRPPRLPRPRPRPRSTPRP | -0.156
110 | RRIRMRPPRLPRPRPRPEELPRP | 0.123
111 | RRIRFRPPRLPRPRPRPAQCPRP | 0.0148
112 | RRIRDRPPRLPRPRPRPIWVPRP | -0.0618
113 | RRIRIRPPRLPRPRPRPNVLPRP | -0.349
114 | RRIRYRPPRLPRPRPRPIHQPRP | -0.0218
115 | RRIRTRPPRLPRPRPRPLSYPRP | -0.155
116 | RRIRSRPPRLPRPRPRPWMPPRP | -0.433
117 | RRIRYRPPRLPRPRPRPFDYPRP | -0.184
118 | RRIRNRPPRLPRPRPRPSLEPRP | -0.208
119 | RRIRRRPPRLPRPRPRPGSWPRP | 0.189
120 | RRIRRRPPRLPRPRPRPVKQPRP | -0.0104
121 | RRIRFRPPRLPRPRPRPNGFPRP | 0.000958
122 | RRIRWRPPRLPRPRPRPQMEPRP | 0.0344
123 | RRIRLRPPRLPRPRPRPGCSPRP | 0.0547
124 | RRIRGRPPRLPRPRPRPARRPRP | 0.739
125 | RRIRTRPPRLPRPRPRPGKQPRP | -0.184

Row | Sequence | shrunken log2 fold change
126 | RRIRKRPPRLPRPRPRPKTYPRP | -0.156
127 | RRIRGRPPRLPRPRPRPLPSPRP | 0.83
128 | RRIRSRPPRLPRPRPRPRTEPRP | 0.00553
129 | RRIRWRPPRLPRPRPRPQCWPRP | 0.0793
130 | RRIRFRPPRLPRPRPRPYMWPRP | -1.43
131 | RRIRNRPPRLPRPRPRPSQRPRP | -0.0448
132 | RRIRERPPRLPRPRPRPQPTPRP | 0.234
133 | RRIRYRPPRLPRPRPRPCCMPRP | -0.356
134 | RRIRQRPPRLPRPRPRPGLSPRP | 0.0405
135 | RRIRYRPPRLPRPRPRPITQPRP | -0.532
136 | RRIRYRPPRLPRPRPRPYNCPRP | -0.0167
137 | RRIRPRPPRLPRPRPRPHYVPRP | -0.348
138 | RRIRMRPPRLPRPRPRPLQFPRP | 0.388
139 | RRIRSRPPRLPRPRPRPNYRPRP | -0.366
140 | RRIRNRPPRLPRPRPRPIPKPRP | -0.0467
141 | RRIRQRPPRLPRPRPRPGVAPRP | 0.207
142 | RRIRVRPPRLPRPRPRPRSEPRP | -0.14
143 | RRIRTRPPRLPRPRPRPNYNPRP | -0.831
144 | RRIRCRPPRLPRPRPRPPEYPRP | -0.319
145 | RRIRERPPRLPRPRPRPRCNPRP | -0.122
146 | RRIRIRPPRLPRPRPRPSFWPRP | 0.059
147 | RRIRARPPRLPRPRPRPKCLPRP | 0.613
148 | RRIRDRPPRLPRPRPRPVWQPRP | 0.63
149 | RRIRQRPPRLPRPRPRPLAQPRP | 0.233
150 | RRIRTRPPRLPRPRPRPMITPRP | -0.0731
